According to PMC10528150, “Mutant Cytochrome C as a Potential Detector of Superoxide Generation: Effect of Mutations on the Function and Properties” (Cells, 2023):

B1: cytochrome c wild type (recombinant horse heart CytC) (natural protein)
chain: not shown
modifications: heme c (hemoporphyrin type c, Fe ligated by His18 and Met80)
B2: cytochrome c with substitutions K8E/K27E/E62K/E69K/K72E/K86E/K87E/E90K (natural protein)
chain: not shown
modifications: heme c (hemoporphyrin type c)

Target: cytochrome c oxidase (ferrocytochrome c:oxygen oxidoreductase), solubilized complex
Assay: cell-based or functional assay

| Activity in the cytochrome c oxidase reaction, % of WT | Binder |
| --- | --- |
| 100% | B1 |
| < 1% | B2 |
